Reference: publication PMC2172186 (The Journal of Cell Biology, 2004)

Tests used:
[1] = target: TgMyoA (Toxoplasma gondii myosin-A, class XIV myosin) (Toxoplasma gondii (endogenous in RH strain parasites)) (UniProt O00934); assay: co-IP
[2] = target: TgMyoA (Toxoplasma gondii myosin-A, class XIV myosin) (Toxoplasma gondii (endogenous in RH …, UniProt O00934 1-831)); assay: co-IP

Molecule	molar ratio to TgMyoA in the complex [1]	molar ratio to TgMyoA in the complex [2]
TgMLC1 (Toxoplasma gondii myosin light chain-1) (natural protein)	1.38	–
TgGAP45 (Toxoplasma gondii gliding-associated protein 45) (natural protein, UniProt Q7Z289 1-245, looked up) MGNACKKNTAKTPTRKEAEDLAEKERQEREAKEKAEAEEKARAEAEKNAADKAEAERRAAEAREREESARKEAEAEAARKAEAEAAEAERLRKEAEKKKAEEAKRKAEEEQRAAAEEAEQRAREEAERRKAEAAAAAERERQMQEALKQEEMSPREKYDKLASPEDSASETTMATQPQKVAEHSSAAVTDRSVVGYTVTPCDMAAIDETAKYLSKRCGCDLGDQHDENECPICRHIDLSDAPLLN	–	1.31
